Molecular target: IL-2 receptor (IL-2R) on CTLL-2 cells
Experiment: cell-based or functional assay

Proleukin (recombinant human IL-2, Novartis Pharma GmbH; the Aldesleukin drug employed in the clinic) (from UniProt P60568 22-153) (ligand)
mean effective dose (ED50), CTLL-2 proliferation (MTT assay): 0.34 ng/mL

— patent US20220213163A1
